The values that follow come from article PMC7392005, “Fructose-1, 6-bisphosphatase 1 interacts with NF-κB p65 to regulate breast tumorigenesis via PIM2 induced phosphorylation” (Theranostics, 2020).

Assay [1] has as its target T1, GST-tagged FBP1 (UniProt P09467 1-338).
T1 construct: fructose-1,6-bisphosphatase 1 (FBP1); also called GST-FBP1; source: E. coli BL21 (DE3), purified
T1 sequence (looked up): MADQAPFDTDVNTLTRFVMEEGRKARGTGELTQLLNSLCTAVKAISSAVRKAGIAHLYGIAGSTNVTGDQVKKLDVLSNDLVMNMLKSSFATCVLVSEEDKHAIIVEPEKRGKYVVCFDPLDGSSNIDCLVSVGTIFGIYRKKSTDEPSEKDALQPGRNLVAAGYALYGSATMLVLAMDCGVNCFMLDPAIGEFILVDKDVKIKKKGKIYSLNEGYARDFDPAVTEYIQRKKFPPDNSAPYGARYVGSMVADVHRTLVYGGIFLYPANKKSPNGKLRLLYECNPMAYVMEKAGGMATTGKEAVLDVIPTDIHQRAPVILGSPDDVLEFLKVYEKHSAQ
Kind of assay: pull-down; GST pull-down: purified GST-tagged protein (or GST) mixed with His-tagged protein, both expressed in E. coli BL21 (DE3). Conditions: both partners purified.

In assay [2] the target is T2, GST-tagged p65 (UniProt Q04206 1-551).
T2 construct: NF-κB p65 (RelA); also called GST-p65; source: E. coli BL21 (DE3), purified
T2 sequence (Q04206 whole entry): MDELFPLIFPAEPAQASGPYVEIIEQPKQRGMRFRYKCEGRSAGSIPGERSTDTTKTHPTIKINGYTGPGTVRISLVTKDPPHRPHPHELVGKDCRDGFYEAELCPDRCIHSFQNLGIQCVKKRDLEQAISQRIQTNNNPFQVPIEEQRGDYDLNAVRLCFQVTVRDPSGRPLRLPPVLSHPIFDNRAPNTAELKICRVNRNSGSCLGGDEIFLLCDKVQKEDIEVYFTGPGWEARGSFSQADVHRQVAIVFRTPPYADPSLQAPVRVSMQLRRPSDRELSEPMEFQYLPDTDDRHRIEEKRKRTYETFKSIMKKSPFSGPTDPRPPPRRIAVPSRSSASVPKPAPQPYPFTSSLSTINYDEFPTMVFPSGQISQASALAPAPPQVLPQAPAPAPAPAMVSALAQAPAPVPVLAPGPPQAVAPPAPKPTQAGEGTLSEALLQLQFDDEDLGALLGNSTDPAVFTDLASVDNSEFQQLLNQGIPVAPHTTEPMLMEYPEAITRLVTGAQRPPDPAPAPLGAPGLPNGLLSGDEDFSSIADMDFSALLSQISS
The description is as above. Conditions: both partners purified.

B1: His-tagged PIM2 (enzyme)
chain: not shown
notes: serine/threonine kinase PIM2; also called His-PIM2; source: E. coli BL21 (DE3), purified
As to B1, in assay [1], the binding result is on record as “binds”.

B2: His-tagged FBP1 (enzyme, UniProt P09467 1-338, looked up)
chain: T1 sequence (looked up)
notes: fructose-1,6-bisphosphatase 1 (FBP1); also called His-FBP1; source: E. coli BL21 (DE3)
On to B2, for which the binding result in assay [2] is given as “binds”.
